The values that follow come from patent US20250116673A1 (published 2025).

The assay deals with T1, SARS-CoV-2 Spike protein peptide on HLA-DPA1*01:03 / HLA-DPB1*04:01 (human).
T1 peptide: TFEYVSQPFLMDLE
Kind of assay: multimer staining.

B1: TCR4.1 (TCR)
alpha TRAV35 TRAJ42 CDR3: CAGMNYGGSQGNLIF
beta TRBV4-1 TRBJ1-2 CDR3: CASSQGVGYTF
Consider B1, for which the binding result is “recognises”.

B2: TCR6.3 (TCR)
alpha TRAV35 TRAJ42 CDR3: CAGMNYGGSQGNLIF
beta TRBV6-3 TRBJ1-2 CDR3: CASSYRGAYGYTF
Take B2: the binding result is given as “recognises”.
